In US6528618B1, “Anti-inflammatory peptides derived from C-reactive protein” (Yeda Research and Development Co. Ltd., priority 1997, dated 2003):
Read-outs that look alike come from different tables or passages of the source. Where a SMILES comes first, the peptide text is derived from it.

Experiments:
[1] = molecular target: T1, human leukocyte elastase (hLE) (Homo sapiens, UniProt P08246); assay: In vitro inhibition of hLE (cleavage of MeOSuc-AAPV-NA); format: biochemical
T1 construct: Neutrophils (1.4 billion) were isolated from whole blood obtained from a single healthy laboratory donor; from tissue; host or cells: neutrophils from whole blood of a single healthy donor
T1 sequence (P08246 30-247 limits assumed): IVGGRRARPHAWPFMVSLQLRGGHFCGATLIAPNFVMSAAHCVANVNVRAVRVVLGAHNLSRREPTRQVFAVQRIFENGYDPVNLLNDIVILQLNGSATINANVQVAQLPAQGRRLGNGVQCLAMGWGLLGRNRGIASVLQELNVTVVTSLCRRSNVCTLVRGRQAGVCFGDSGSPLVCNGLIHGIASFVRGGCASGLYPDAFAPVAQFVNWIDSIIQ

[2] = molecular target: T2, human leukocyte cathepsin G (hCG) (Homo sapiens, UniProt P08311); assay: In vitro inhibition of hCG (cleavage of Suc-AAPF-NA); format: biochemical
T2 construct: Neutrophils (1.4 billion) were isolated from whole blood obtained from a single healthy laboratory donor; from tissue; host or cells: neutrophils from whole blood of a single healthy donor
T2 sequence (P08311 21-243 limits assumed): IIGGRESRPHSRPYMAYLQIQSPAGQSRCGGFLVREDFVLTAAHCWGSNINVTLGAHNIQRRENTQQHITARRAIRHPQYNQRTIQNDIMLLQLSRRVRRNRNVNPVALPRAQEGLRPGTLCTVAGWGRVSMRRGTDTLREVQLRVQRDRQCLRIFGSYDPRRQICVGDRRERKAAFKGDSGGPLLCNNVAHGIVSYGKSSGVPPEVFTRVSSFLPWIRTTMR
Method in brief: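 Purified hCG (1.2 μg, about 40 picomol) incubated with 600 μM Suc-AAPF-NA and CRP-derived peptides at 1–100 μM in 100 mM Hepes pH 7.4, 0.05% Brij-35, 5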

[3] = molecular target: T3, hLE (Homo sapiens, UniProt P08246); assay: Resistance to proteolysis by hLE, degradation profile by RP-HPLC; format: in vitro ADME; conditions: PBS, 37° C., up to 12 hours
T3 construct: Neutrophils (1.4 billion) were isolated from whole blood obtained from a single healthy laboratory donor; from tissue; host or cells: neutrophils from whole blood of a single healthy donor
T3 sequence (P08246 30-247 limits assumed): T1 sequence (P08246 30-247 limits assumed)
Method: (§1) (vii) Degradation profiles of peptides by RP-HPLC: Several active peptide inhibitors were dissolved in calcium- and magnesium-free phosphate-buffered saline (PBS), 125 μg /250 μL, mixed with […] of hLE or hCG in 250 μL PBS and incubated at 37° C. Periodically (up to 12 hrs), 100 μL samples were removed from the reaction vessel. The samples were diluted with 150 μL of 0.1% TFA, frozen with liquid nitrogen, and stored at −20° C. prior to HPLC analysis.
(§2) The stability of the peptide bonds in peptide 6 were evaluated by incubating the peptide with hLE and hCG and monitoring degradation profiles of the peptide by reverse-phase HPLC. Briefly, peptide 6 was dissolved in calcium- and magnesium-free phosphate-buffered saline (PBS), 50 μg/250 μL, mixed with 3 μg of hLE or hCG in 250 μL PBS and incubated at 37° C. Periodically, after 1,3,8, and 12 hrs incubation, 100 μL samples were removed from the reaction vessel. The samples were diluted with 150 μL of 0.1% TFA, frozen with liquid nitrogen, and stored at −20° C. prior to HPLC analysis.

[4] = molecular target: T4, hCG (Homo sapiens, UniProt P08311); assay: Resistance to proteolysis by hCG, degradation profile by RP-HPLC; format: in vitro ADME; conditions: PBS, 37° C., up to 12 hours
T4 construct: Neutrophils (1.4 billion) were isolated from whole blood obtained from a single healthy laboratory donor; from tissue; host or cells: neutrophils from whole blood of a single healthy donor
T4 sequence (P08311 21-243 limits assumed): T2 sequence (P08311 21-243 limits assumed)
Method: as §1, §2

[5] = molecular target: T5, human leukocyte cathepsin G (human, UniProt P08311 21-244); assay: hCG enzyme inhibition kinetics, cleavage of Suc-AAPF-NA
T5 construct: mature; Active enzyme purified from human neutrophils; also called hCG; human Cathepsin G
T5 sequence (looked up): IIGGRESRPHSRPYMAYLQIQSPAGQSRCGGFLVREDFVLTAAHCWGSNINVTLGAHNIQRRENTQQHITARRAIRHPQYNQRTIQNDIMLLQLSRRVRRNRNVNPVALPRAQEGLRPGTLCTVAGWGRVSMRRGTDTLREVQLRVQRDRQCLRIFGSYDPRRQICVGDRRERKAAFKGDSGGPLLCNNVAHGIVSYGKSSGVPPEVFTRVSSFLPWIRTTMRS
Method: (§3) (v) Inhibition experiments with hLE: Peptides were dissolved in 100 mM Hepes buffer pH 7.4 containing 0.1% Brij-35 with 10%. DMSO to yield 300 µM solutions, which were used to make further dilutions with the same buffer, and 80 µL aliquots were added in duplicates to 96-well plates. The substrate, 600 µM MeOSuc-AAPV-NA in the same buffer with 5% DMSO, was added to each well in addition to the blank wells, and the plate was placed in the plate reader equilibrated to 37 C (Dynateck MR-6000). Lyophilized aliquots of hLE were dissolved in 1600 µL of 100 mM Hepes buffer without DMSO, and 80 µL of the enzyme solution was added to the peptides and substrate to initiate the reaction. The kinetics program read the plate at 405 nm every 2 min for 20 min (with a 3 sec shaking period between readings), and plotted the results as well as the average of each duplicate. The final volume was 240 µL containing: 5% DMSO, 1–100 µM of peptide, 200 µM substrate, and 0.75 µg (~25 picomol) enzyme.
(§4) vi) Inhibition experiments with hCG: Similar conditions to hLE inhibition experiments were used except the substrate: 80 µL of 1.80 mM Suc-AAPF-NA. The enzyme was dissolved in 800 µL buffer, and the reaction was monitored every 6 min for 1 hour. The final volume was 240 µL containing: 5% DMSO, 1–100 µM peptide, 600 µM substrate, and 1.2 µg enzyme (about 40 picomol).

[6] = molecular target: T6, human leukocyte elastase (human, UniProt P08246 30-267); assay: hLE enzyme inhibition kinetics, cleavage of MeOSuc-AAPV-NA
T6 construct: mature; Active enzyme purified from human neutrophils; also called hLE
T6 sequence (looked up): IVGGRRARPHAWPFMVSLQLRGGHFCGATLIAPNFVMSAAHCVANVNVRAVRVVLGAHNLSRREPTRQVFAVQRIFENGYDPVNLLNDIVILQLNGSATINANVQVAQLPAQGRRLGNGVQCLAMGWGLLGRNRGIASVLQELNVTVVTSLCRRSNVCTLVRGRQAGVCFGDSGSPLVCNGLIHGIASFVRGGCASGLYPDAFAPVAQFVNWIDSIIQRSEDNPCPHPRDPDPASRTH
Method: as §3
(§5) The hLE inhibitory capability of CRP-derived peptides was evaluated by inhibiting the enzymatic cleavage of MeOSuc-AAPV-NA as described in Materials and Methods (section v).

[7] = molecular target: T5, human leukocyte cathepsin G; assay: hCG enzyme inhibition kinetics, cleavage of Suc-AAPF-NA; remark: listed apart in the source
Method: as §3, §4

[8] = molecular target: T6, human leukocyte elastase; assay: hLE enzyme inhibition kinetics, cleavage of MeOSuc-AAPV-NA; remark: listed apart in the source
Method: as §3, §5

[9] = system: specific receptors on human neutrophils; conditions: in vitro; read-out: Kd, binding to receptors on human neutrophils; cited from earlier work
[10] = molecular target: specific receptors on monocytes; conditions: in vitro; read-out: Kd, binding to receptors on monocytes; cited from earlier work
[11] = molecular target: T7, hLE (Homo sapiens, UniProt P08246); conditions: CRP as a whole protein; cited from earlier work
T7 sequence (P08246 30-267): T6 sequence (looked up)

[12] = peptide concentrations above 50 μM

CC[C@H](C)[C@H](NC(=O)[C@H](CC(=O)O)NC(=O)[C@H](CCCCN)NC(=O)[C@H](CO)NC(=O)[C@H](Cc1c[nH]c2ccccc12)NC(=O)[C@H](Cc1ccccc1)NC(=O)[C@@H](NC(=O)[C@H](CC(C)C)NC(=O)[C@@H](NC(=O)[C@@H](N)CCC(=O)O)[C@@H](C)CC)[C@@H](C)CC)C(=O)NCC(=O)N[C@@H](Cc1ccc(O)cc1)C(=O)N[C@@H](CO)C(=O)N[C@@H](Cc1ccccc1)C(=O)N[C@H](C(=O)O)[C@@H](C)O [Peptide 6, Glu-Ile-Leu-Ile-Phe-Trp-Ser-Lys-Asp-Ile-Gly-Tyr-Ser-Phe-Thr] (H-EILIFWSKDIGYSFT-OH; N-terminus and C-terminus assumed)
hLE inhibitory activity (in words) [1]: submicromolar concentrations
Ki ([1]; hLE Ki [μM], Table 1, substrate MeOSuc-AAPV-NA 200 μM, pH 7.4, 37 C): 0.18 ± 0.03 µM
hLE inhibition at concentrations above 50 μM [1, 12]: Total inhibition
hCG inhibitory activity (in words) [2]: submicromolar concentrations
Ki ([2]; hCG Ki [μM], Table 1, substrate Suc-AAPF-NA 600 μM, pH 7.4): 0.25 ± 0.05 µM
hCG inhibition at concentrations above 50 μM [2, 12]: total inhibition
cleavage products after incubation with hLE [3]: no cleavage products were observed
cleavage products after incubation with hCG [4]: no cleavage products were observed

B1: peptide 10 (CRP82-96) (peptide)
peptide: ILFEVPEVTVAPVHI
notes: Synthetic 15-mer
Ki [5]: 150 µM
Ki [6]: 55 µM

B2: peptide 11 (CRP63-76) (peptide)
peptide: ILIFWSKDIGYSFT
notes: Synthetic
Ki [7]: 15 µM
fold decrease in hLE inhibition against peptide 6 [6]: ~20 fold
Ki [8]: 4.5 µM

B3: peptide 13 (CRP62-73) (peptide)
peptide: EILIFWSKDIGY
notes: Synthetic; also called pep13
Ki [7]: 4 µM
Ki [8]: 1.1 µM

B4: peptide 14 (CRP62-71) (peptide)
peptide: EILIFWSKDI
notes: Synthetic; also called pep14
Ki [7]: 6 µM
Ki [8]: 6.7 µM

B5: peptide 18 (peptide)
peptide: DILIFWSKDIGYSFT
notes: Analog of peptide 6 (CRP62-76) with Glu62 replaced by Asp; also called pep18
Ki [7]: 2.6 µM
fold lower inhibitory activity against peptide 6 [6]: 10 fold
Ki [8]: 2.2 µM

B6: peptide 5 (CRP57-71) (peptide)
peptide: KRQDNEILIFWSKDI
notes: Synthetic 15-mer
Ki [5]: 180 µM
Ki [6]: 85 µM

B7: CRP: plasma protein classified as a major acute phase reactant; five identical sub-units of 206 amino acids (pentraxin) (protein, listed as Homo sapiens)
chain: ETDMSRKAFVFPKESDTSYVSLKAPLTKPLKAFTVCLHFYTELSSTRGYSIFSYATKRQDNEILIFWSKDIGYSFTVGGSEILFEVPEVTVAPVHICTSWESASGIVEFWVDGKPRVRKSLKKGYTVGAEASIILGQEQDSFGGNFEGSQSLVGDIGNVNMWDFVLSPDEINTIYLGGPFSPNVLNWRALKYEVQGEVFTKPQLWP
modifications: pentamer
Kd [9]: ~0.05 µM
Kd [10]: ~0.1 µM
inhibitory effect of whole CRP on hLE [11]: no inhibitory effect
